Several values for one entry are separate records, joined by “and”; a condition that tells them apart may be missing. Equal values may be shown once. Read-outs that look alike come from different tables or passages of the source.
Assays:
NaV1.7 [1] = molecular target: T1, NaV1.7 (Homo sapiens, UniProt Q15858); assay type: cell-based; conditions: Fig 6d
Protocol: Current-voltage (IV) curves were determined in HEK-NaV1.7 cells, in the absence and presence of TMEM233, from a series of step pulses (500 ms) ranging from −110 to +55 mV (5 mV increments, repetition interval 5 s) before and after incubation with ExTxA (1 μM) from a holding potential of −90 mV. Currents were converted to conductance (G) using G = I/(V − Vrev), with Vrev being the reversal potential, plotted against voltage and fitted with a Boltzmann equation to obtain GV (conductance-voltage) curves. Voltage dependence of steady-state fast inactivation was determined by a subsequent 10 ms pulse to −20 mV immediately following the 500 ms depolarization step detailed above to assess the available non-inactivated channels.

NaV1.7 [2] = molecular target: T1, NaV1.7; assay type: cell-based
Protocol: To determine recovery from fast inactivation, a 20 ms pulse to 0 mV from a holding potential of −90 mV was used to induce fast inactivation. A subsequent recovery period, ranging from 1 ms to 2216 ms in 50% increments at −90 mV, was followed by a last 20 ms test pulses to 0 mV to determine the time-dependence of recovery from fast inactivation. The proportion of available channels was determined by normalizing peak currents from the last to the first pulse. A two-phase exponential equation was fit to the normalized current, plotted as a function of time, to determine the time constants τ1 and τ2 of recovery from fast inactivation.

hNaV1.7/TMEM233 = experiment: Persistent current, CHO hNaV1.7/TMEM233; assay type: cell-based, human; conditions: Supplementary Fig 1e
TMEM233 = TMEM233 (Homo sapiens, UniProt B4DJY2); experiment: Currents in Cos-1 cells transfected with TMEM233 only; assay type: cell-based
Protocol: Whole-cell patch clamp experiments involving HEK293, COS-1, CHO, ND7/23, F11, SH-SY5Y and TE-671 cells were performed on a QPatch II automated electrophysiology platform (Sophion Bioscience, Ballerup, Denmark) as previously described. Cells at approximately 70–80% confluency were harvested from T75 flasks using TrypLE Express at 37 °C for 2–5 min and resuspended in DMEM with 25 mM HEPES (Sigma-Aldrich, NSW, Australia), 100 U/mL Penicillin-Streptomycin (Gibco) and 40 µg/mL trypsin inhibitor from Glycine max (soybean) (Sigma Aldrich) prior to recovery on a QStirrer (Sophion) for 30 min. 16-channel patch plates with a patch hole diameter of 1 μm and resistance of 2 ± 0.02 MΩ were used. Cell positioning and sealing parameters were as follows: positioning pressure −60 mbar, minimum seal resistance 0.1 GΩ, holding potential −100 mV, holding pressure −20 mbar. Whole-cell currents were filtered at 5 kHz and acquired at 25 kHz. Series resistance compensation was used and set to 70%.

NaV1.7 [3] = molecular target: T1, NaV1.7; assay type: cell-based; remark: listed apart in the source
Protocol: To determine the voltage dependence of slow inactivation, HEK293-NaV1.7 cells were held at −120 mV and peak current determined by an initial 20 ms pulse to 0 mV. Following a series of 15,000 ms step pulses ranging from −120 to 0 mV in 20 mV increments, a subsequent 50 ms test pulse to 0 mV, preceded by a 50 ms step to −120 mV to remove fast inactivation, was used to determine the remaining current. The proportion of slow-inactivated channels was determined by normalizing peak current from the test pulse to the initial depolarization. A Boltzmann equation was fit to the current data, plotted as a function of voltage, to determine the V50 as well as the minimum proportion of activatable channels.

NaV1.7 [4] = molecular target: T1, NaV1.7; experiment: Effect of TMEM233 co-expression on ramp currents; assay type: cell-based; conditions: Fig 6j
Protocol: The holding potential was −90 mV. After a 50 ms pulse to −100 mV, ramps from −100 mV to +20 mV at a rate of 0.2 and 1.0 mV/ms were applied before and after ExTxA (100 nM) addition.

T1 sequence (Q15858 whole entry): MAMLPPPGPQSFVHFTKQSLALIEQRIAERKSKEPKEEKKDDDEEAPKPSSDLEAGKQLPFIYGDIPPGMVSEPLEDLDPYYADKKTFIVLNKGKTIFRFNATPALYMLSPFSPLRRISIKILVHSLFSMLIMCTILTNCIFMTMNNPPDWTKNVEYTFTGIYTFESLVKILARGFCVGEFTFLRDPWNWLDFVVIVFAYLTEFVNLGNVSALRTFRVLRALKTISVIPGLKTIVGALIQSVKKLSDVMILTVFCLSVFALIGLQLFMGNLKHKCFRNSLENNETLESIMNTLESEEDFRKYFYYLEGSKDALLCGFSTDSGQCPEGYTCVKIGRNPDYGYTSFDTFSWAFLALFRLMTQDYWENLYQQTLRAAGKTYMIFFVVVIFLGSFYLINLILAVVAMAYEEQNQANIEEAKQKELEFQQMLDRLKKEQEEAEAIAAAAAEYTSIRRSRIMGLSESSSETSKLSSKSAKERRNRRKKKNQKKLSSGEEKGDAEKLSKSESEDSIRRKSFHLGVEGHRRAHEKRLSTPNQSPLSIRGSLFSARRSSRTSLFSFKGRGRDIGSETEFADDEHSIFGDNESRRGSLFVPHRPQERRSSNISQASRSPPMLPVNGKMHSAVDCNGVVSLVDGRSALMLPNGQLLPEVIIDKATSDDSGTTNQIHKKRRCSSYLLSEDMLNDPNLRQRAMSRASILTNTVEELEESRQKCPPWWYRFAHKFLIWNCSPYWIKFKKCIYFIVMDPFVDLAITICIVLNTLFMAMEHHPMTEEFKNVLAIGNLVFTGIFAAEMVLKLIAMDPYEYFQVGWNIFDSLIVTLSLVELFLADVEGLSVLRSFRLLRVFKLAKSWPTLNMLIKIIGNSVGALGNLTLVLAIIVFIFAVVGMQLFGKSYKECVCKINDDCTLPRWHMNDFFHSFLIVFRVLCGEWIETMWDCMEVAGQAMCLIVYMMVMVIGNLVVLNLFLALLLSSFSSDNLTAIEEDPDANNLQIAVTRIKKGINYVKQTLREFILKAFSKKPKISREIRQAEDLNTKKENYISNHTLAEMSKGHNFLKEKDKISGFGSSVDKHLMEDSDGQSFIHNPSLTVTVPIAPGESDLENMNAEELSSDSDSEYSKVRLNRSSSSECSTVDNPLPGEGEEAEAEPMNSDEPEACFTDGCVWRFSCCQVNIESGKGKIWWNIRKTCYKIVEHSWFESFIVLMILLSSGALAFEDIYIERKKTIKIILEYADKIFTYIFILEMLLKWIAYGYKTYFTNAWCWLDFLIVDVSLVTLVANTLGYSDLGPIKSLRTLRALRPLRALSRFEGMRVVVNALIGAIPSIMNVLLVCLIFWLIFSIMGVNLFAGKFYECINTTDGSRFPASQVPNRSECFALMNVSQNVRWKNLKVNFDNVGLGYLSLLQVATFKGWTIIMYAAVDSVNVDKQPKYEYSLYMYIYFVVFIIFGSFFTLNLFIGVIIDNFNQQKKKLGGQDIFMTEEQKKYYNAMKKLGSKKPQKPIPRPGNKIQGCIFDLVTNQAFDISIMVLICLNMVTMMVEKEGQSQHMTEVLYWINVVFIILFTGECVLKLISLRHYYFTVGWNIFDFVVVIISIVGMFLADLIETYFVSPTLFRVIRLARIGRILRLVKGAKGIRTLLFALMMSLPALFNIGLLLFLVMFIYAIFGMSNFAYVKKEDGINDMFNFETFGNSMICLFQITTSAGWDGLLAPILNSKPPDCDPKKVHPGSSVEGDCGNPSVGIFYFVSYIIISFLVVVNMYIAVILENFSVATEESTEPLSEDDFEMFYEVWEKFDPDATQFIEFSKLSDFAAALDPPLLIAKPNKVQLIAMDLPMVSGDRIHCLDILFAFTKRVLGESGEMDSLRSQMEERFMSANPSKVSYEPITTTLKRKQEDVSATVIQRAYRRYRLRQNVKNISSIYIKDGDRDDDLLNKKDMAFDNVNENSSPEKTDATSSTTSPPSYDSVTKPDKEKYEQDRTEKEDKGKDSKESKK
T1 sequence (Q07699 19-218, further chain): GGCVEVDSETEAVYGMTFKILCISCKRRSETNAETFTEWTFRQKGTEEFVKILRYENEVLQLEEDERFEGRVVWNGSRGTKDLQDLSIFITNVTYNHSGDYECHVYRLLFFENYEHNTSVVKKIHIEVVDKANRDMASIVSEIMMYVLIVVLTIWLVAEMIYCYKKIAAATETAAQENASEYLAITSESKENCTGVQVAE

B1: TMEM233 (protein)
chain: MSQYAPSPDFKRALDSSPEANTEDDKTEEDVPMPKNYLWLTIVSCFCPAYPINIVALVFSIMSLNSYNDGDYEGARRLGRNAKWVAIASIIIGLLIIGISCAVHFTRNA
NaV1.7 [1]; Nav1.7/β1/TMEM233, HEK, individual cells, one line each (n = 11)
  V50 of Activation: -31.12 and -24.58 and -26.49 and -27.4 and -28.15 and -19.85 and -25.7 and -20.24 and -36.47 and -27.6 and -24.5
NaV1.7 [1]; Nav1.7/β1/TMEM233, HEK, mean, n = 11
  V50 of Activation, mean: -26.55
NaV1.7 [1]; Nav1.7/β1/TMEM233 minus Nav1.7/β1 (Mock), unpaired t test, P value 0.8489
  V50 of Activation, difference between means (B - A) ± SEM: -0.4462 ± 2.301
NaV1.7 [2]
  Tau (Fast) RFFI, individual values: 7.679
NaV1.7 [2]; Fig 6i, NaV1.7/β1/TMEM233, mean of n = 18, NaV1.7/β1 (Mock) mean 6.695, n = 8
  Tau (Fast) RFFI, mean: 9.635
NaV1.7 [2]; Fig 6i, NaV1.7/β1/TMEM233, single replicates
  Tau (Fast) RFFI, individual values: 8.086 and 8.074 and 13.19 and 9.314 and 15.71 and 7.639 and 9.188 and 12.89 and 5.959 and 5.962 and 16.54 and 10.99 and 8.961 and 6.569
NaV1.7 [2]; Fig 6i, unpaired t test P = 0.0236, 95% CI -5.450 to -0.4305
  Tau (Fast) RFFI, difference between means (Mock - TMEM233) ± SEM: -2.940 ± 1.216
NaV1.7 [2]; Fig 6m, co-expression with NaV1.7/β1, mean of n = 7, NaV1.7/β1 mean 6.051, n = 16
  Tau Fast, mean: 10.53
NaV1.7 [2]; Fig 6m, co-expression with NaV1.7/β1, single replicates
  Tau Fast, individual values: 9.314 and 15.71 and 7.639 and 8.588 and 10.41 and 9.188 and 12.89
NaV1.7 [2]; Fig 6m, Tukey's adjusted P 0.0002, 95% CI 2.091 to 6.876
  Tau Fast, mean diff. NaV1.7/β1/TMEM233 vs. NaV1.7/β1: 4.484
NaV1.7 [2]; Fig 6m, Tukey's adjusted P 0.0026, 95% CI 1.415 to 7.059
  Tau Fast, mean diff. vs. NaV1.7/β1/TMEM233 35-109: 4.237
hNaV1.7/TMEM233; TMEM233 column, toxin not named, mean of n = 16, Control mean -0.0001975, n = 6
  Persistent Current, mean: -2.01
hNaV1.7/TMEM233; TMEM233 column, toxin not named, single replicates
  Persistent Current, individual values: -0.5607 and -1.881 and -2.243 and -3.609 and -4.773 and -1.301 and -2.129 and -2.32 and -2.174 and -2.568 and -0.4229 and -2.1714 and -2.227 and -1.642
hNaV1.7/TMEM233; unpaired t test P = 0.0003, 95% CI -2.968 to -1.051
  Persistent Current, difference between means (TMEM233 - Control) ± SEM: -2.010 ± 0.4595
TMEM233
  Peak Current, difference between means (COS-1 TMEM233 - COS-1) ± SEM: 55.71 ± 37.05
  Peak Current, individual values: -254.824 and -273.19 and -178.816 and -233.506 and -232.738 and -200.138
  Peak Current, mean: -228.9
NaV1.7 [3]
  Bottom (Boltzmann sigmoidal, best-fit value): 0.2301
  Slope (Boltzmann sigmoidal, best-fit value): -7.153
  Top (Boltzmann sigmoidal, best-fit value): 1.031
  V50 (Boltzmann sigmoidal, best-fit value): -65.56 mV
NaV1.7 [3]; Fig. 6g, NaV1.7/β1/TMEM233, mean of n = 13, NaV1.7/β1 (Mock) mean -59.66, n = 11
  V50, mean: -65.18
NaV1.7 [3]; Fig. 6g, NaV1.7/β1/TMEM233, single replicates
  V50, individual values: -60.38 and -71.19 and -68.09 and -76.79 and -71.43 and -68.52 and -59.19 and -60.32 and -58.12 and -54.99 and -67.1 and -64.07 and -67.16
NaV1.7 [3]; Fig. 6g, unpaired t test P = 0.0108, 95% CI -9.637 to -1.412
  V50, difference between means (TMEM233 - Mock) ± SEM: -5.524 ± 1.983
NaV1.7 [4]; NaV1.7-TMEM233, mean of n = 9, NaV1.7 + pcDNA3.1 mean -0.1808, n = 11, analysis title says (+ExTxA)
  Peak current ramp 1 mV/ms, mean: -0.1202
NaV1.7 [4]; NaV1.7-TMEM233, single replicates, analysis title says (+ExTxA)
  Peak current ramp 1 mV/ms, individual values: -0.1309 and -0.159 and -0.09062 and -0.1816 and -0.1566 and -0.06849 and -0.0929 and -0.1073 and -0.09446
NaV1.7 [4]; unpaired t test P = 0.0914 (ns), 95% CI -0.01079 to 0.1320
  Peak current ramp 1 mV/ms, difference between means (TMEM233 - pcDNA3.1) ± SEM: 0.06063 ± 0.03399

Reference: publication PMC10147923, “Pain-causing stinging nettle toxins target TMEM233 to modulate NaV1.7 function” (Nature Communications, 2023)
